From the supplement of paper PMC7877785
± gives the uncertainty stated by the source.

Assay: self-splicing fitness, log relative to wild type (ln ratio); higher = more splicing; Tetrahymena group I intron in knt gene, E. coli kanamycin selection, DiMSum; sequences stand for … in CUCUCU…GGAGGGAAAAGUUAUCAGGCAUGCACCUGGUAGCUAGUCUUUAAACCAAUAGAUUGCAUCGGUUUAAAAGGCAAGACCGUCAAAUUGCGGGAAAGGGGUCAACAGCCGUUCAGUACCAAGUCUCAGGGGAAACUUUGAGAUGGCCUUGCAAAGGGUAUGGUAAUAAGCUGACGGACAUGGUCCUAACCACGCAGCCAAGUCCUAAGUCAACAGAUCUUCUGUUGAUAUGGAUGCAGUUCACAGACUAAAUGUCGGUCGGGGAAGAUGUAUUCUUCUCAUAAGAUAUAGUCGGACCUCUCCUUAAUGGGAGCUAGCGGAUGAAGUGAUGCAACACUGGAGCCGCUGGGAACUAAUUUGUAUGCGAAAGUAUAUUGAUUAGUUUUGGAGUACUCGUGGUCG
Outline: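 DiMSum derived fitness as the error-weighted combination of fold changes across replicates, kanamycin versus no kanamycin, normalised to wild type. E. coli BL21(DE3) held the library, which randomised all eight P1ex-region intron nucleotides within the knt kanamycin-resistance gene on pET-22b(+). Six replicate transformations grew overnight at 37°C or 30°C on LB agar with or without 25 μg/mL kanamycin, also containing 100 μg/mL carbenicillin, 50 μM IPTG and 0.2% rhamnose, and pooled colonies were amplicon-sequenced on an Illumina HiSeq 2500.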

| Sequence | self-splicing fitness (ln) (30 °C) | self-splicing fitness (ln) (37 °C) |
| --- | --- | --- |
| GGGCAGCAAUAUUACGACUU | 0.0195 ± 0.16 | -0.0822 ± 0.19 |
| UAGUAGCAAUAUUACGGUGU | -3.57 ± 0.32 | -3.21 ± 0.4 |
| AGAAAGCAAUAUUACGACAA | -0.576 ± 0.087 | 0.0351 ± 0.089 |
| AUAAAGCAAUAUUACGAAGU | -1.82 ± 0.088 | -1.01 ± 0.098 |
| GCGGAGCAAUAUUACGAUAA |  | -2.08 ± 0.35 |
| CCGCAGCAAUAUUACGCGCC | -2.71 ± 0.25 | -2.02 ± 0.47 |
| AUAGAGCAAUAUUACGAGUU | -2.25 ± 0.13 | -1.33 ± 0.15 |
| UAAGAGCAAUAUUACGUGUG | -2.99 ± 0.18 | -1.4 ± 0.14 |
| UUGAAGCAAUAUUACGAACG | 0.338 ± 0.093 | 0.443 ± 0.12 |
| AGGCAGCAAUAUUACGAUGA | -1.23 ± 0.13 | 0.113 ± 0.14 |
| CUAUAGCAAUAUUACGCGUA | -1.43 ± 0.31 | -2.86 ± 0.31 |
| CGAUAGCAAUAUUACGUAAC | -2.84 ± 0.17 | -3.84 ± 0.46 |
| GCUGAGCAAUAUUACGUCCU | -1.52 ± 0.15 | -1.06 ± 0.2 |
| UCACAGCAAUAUUACGUCCG | -1.21 ± 0.086 | -0.358 ± 0.098 |
| ACUGAGCAAUAUUACGUGGG | -3.55 ± 0.21 | -2.28 ± 0.16 |
| UGUCAGCAAUAUUACGGAAG | -2.37 ± 0.14 | -0.569 ± 0.15 |
| ACCUAGCAAUAUUACGCCUG | -2.69 ± 0.19 | -1.66 ± 0.22 |
| UCCGAGCAAUAUUACGACAU | -3.93 ± 0.031 | -2.98 ± 0.043 |
| UCCUAGCAAUAUUACGAUAU | -3.78 ± 0.28 | -2.72 ± 0.23 |
| AGUUAGCAAUAUUACGUAAU | -2.56 ± 0.14 | -1.47 ± 0.14 |
| UCGUAGCAAUAUUACGGAAA | -3.38 ± 0.35 | -2.72 ± 0.31 |
| CCCGAGCAAUAUUACGUUUC | -3.44 ± 0.2 | -3.54 ± 0.24 |
| CUAUAGCAAUAUUACGCCGG | -1.65 ± 0.21 | -0.422 ± 0.25 |
| GGCUAGCAAUAUUACGUGCU | -2.34 ± 0.24 | -1.27 ± 0.14 |
| ACCCAGCAAUAUUACGCAUC | -1.33 ± 0.076 | 0.0782 ± 0.098 |
| GCUCAGCAAUAUUACGCAAG | -2.83 ± 0.42 | -1.69 ± 0.23 |

| Sequence | self-splicing fitness (ln) (30 °C) | self-splicing fitness (ln) (37 °C) |
| --- | --- | --- |
| GUGCAGCAAUAUUACGUACA |  | -2.03 ± 0.34 |
| CCUCAGCAAUAUUACGAAAU | -3.99 ± 0.28 | -2.15 ± 0.34 |
| UGCGAGCAAUAUUACGGGGU | -2.77 ± 0.2 | -3.12 ± 0.35 |
| UCCUAGCAAUAUUACGUCGA | -0.0892 ± 0.07 | 0.0864 ± 0.078 |
| AUGGAGCAAUAUUACGGCUU | -2.98 ± 0.29 | -1.83 ± 0.38 |
| GAGCAGCAAUAUUACGCCAG | -2.49 ± 0.42 | -2.85 ± 0.34 |
| GCUGAGCAAUAUUACGAUUA | -2.88 ± 0.37 | -0.431 ± 0.38 |
| UAUAAGCAAUAUUACGAUCC |  | -2.05 ± 0.37 |
| CAUGAGCAAUAUUACGGGCA | -2.43 ± 0.18 | -2.21 ± 0.28 |
| GUCAAGCAAUAUUACGGGCG | -3.08 ± 0.17 | -0.583 ± 0.13 |
| UAGAAGCAAUAUUACGGUGA | -1.28 ± 0.12 | -0.667 ± 0.12 |
| GGUGAGCAAUAUUACGUCGA | -3.18 ± 0.31 | -2.42 ± 0.28 |
| UUUUAGCAAUAUUACGCGUC |  | -1.23 ± 0.25 |
| UUCCAGCAAUAUUACGAACG | -2.22 ± 0.16 | -0.164 ± 0.15 |
| CAGUAGCAAUAUUACGGUCG | -0.204 ± 0.093 | 0.084 ± 0.1 |
| AGGUAGCAAUAUUACGGGUA | -2.347 ± 0.022 | -1.31 ± 0.034 |
| AUUCAGCAAUAUUACGGACU | 0.0759 ± 0.063 | 0.414 ± 0.083 |
| GCAUAGCAAUAUUACGGAAG | -3.8 ± 0.34 | -2.09 ± 0.37 |
| CACAAGCAAUAUUACGGGCC | -3.78 ± 0.33 | -2.01 ± 0.29 |
| CACCAGCAAUAUUACGCAGC | -3.44 ± 0.16 | -1.77 ± 0.12 |
| UUCAAGCAAUAUUACGAAAG | -3.65 ± 0.24 | -2.39 ± 0.28 |
| ACGUAGCAAUAUUACGAAUC | -4.01 ± 0.3 | -2.74 ± 0.3 |
| AUGGAGCAAUAUUACGGGUC | -4.63 ± 0.29 | -3.52 ± 0.28 |
| AAGCAGCAAUAUUACGGAUC | -1.81 ± 0.093 | -1 ± 0.1 |
| GGGGAGCAAUAUUACGGUUG | -3.25 ± 0.21 | -2.18 ± 0.22 |
| UACUAGCAAUAUUACGCGAU | -2.84 ± 0.18 | -2.5 ± 0.18 |

| Sequence | self-splicing fitness (ln) (30 °C) | self-splicing fitness (ln) (37 °C) |
| --- | --- | --- |
| GAACAGCAAUAUUACGAGAU | -3.55 ± 0.12 | -1.4 ± 0.09 |
| CCGAAGCAAUAUUACGGAAU | -3.74 ± 0.19 | -3 ± 0.24 |
| UCUCAGCAAUAUUACGGCGG | -2.46 ± 0.16 | -1.01 ± 0.18 |
| UAAUAGCAAUAUUACGUAAA | -3.19 ± 0.2 | -1.88 ± 0.19 |
| AACGAGCAAUAUUACGCACU | -1.23 ± 0.11 | -0.611 ± 0.11 |
| AGGAAGCAAUAUUACGUUCG | -0.643 ± 0.071 | -0.266 ± 0.11 |
| CACCAGCAAUAUUACGGUAC | -3.11 ± 0.11 | -2.13 ± 0.1 |
| UUCAAGCAAUAUUACGCGCA | -0.732 ± 0.13 | 0.264 ± 0.17 |
| GGAAAGCAAUAUUACGUUAU | -2.24 ± 0.09 | -1.16 ± 0.12 |
| UGGCAGCAAUAUUACGUAAC | -3.2 ± 0.22 | -2.16 ± 0.26 |
| CGAAAGCAAUAUUACGAAUG | -0.194 ± 0.057 | 0.263 ± 0.08 |
| UCCAAGCAAUAUUACGACGC | -2.45 ± 0.18 | -1.25 ± 0.14 |
| UACGAGCAAUAUUACGUACC |  | -1.17 ± 0.36 |
| UAAAAGCAAUAUUACGACAG | -0.555 ± 0.057 | -0.173 ± 0.074 |
| GUUUAGCAAUAUUACGCAGU | -2.92 ± 0.17 | -2.05 ± 0.22 |
| CGUCAGCAAUAUUACGCUAU | -3.14 ± 0.19 | -1.55 ± 0.17 |
| ACGUAGCAAUAUUACGGAGU | -3.1 ± 0.1 | -1.18 ± 0.079 |
| UUUCAGCAAUAUUACGAGAC | -2.68 ± 0.36 | -3.57 ± 0.46 |
| ACGGAGCAAUAUUACGACCA | -3.73 ± 0.4 | -1.08 ± 0.24 |
| AAGCAGCAAUAUUACGCUUU | -4.53 ± 0.2 | -2.87 ± 0.22 |
| GCGGAGCAAUAUUACGUACC | -3.69 ± 0.36 | -0.124 ± 0.43 |
| UAAGAGCAAUAUUACGAAUU | -3.74 ± 0.43 | -1.84 ± 0.49 |
| AAUUAGCAAUAUUACGGUCU | -0.43 ± 0.085 | 0.202 ± 0.099 |
| UCACAGCAAUAUUACGGUAA | -1 ± 0.084 | -0.187 ± 0.088 |
